Biological target: the molecule itself
Experiment: AUC

B1: UDS1-His6 (natural protein, Aspergillus nidulans, UniProt Q5B1I5 1-941, looked up)
chain: MNGFDFRSSQSSYGDPRHFSDASYGVPQPPPTKVLLDGYRDALGPANAEKSLYNSANPTSHPRRSIPPSANDPVAMYLLTETAMGDSVNYEILSVEEVEGLKKELRVLSNRMNAAKRKLALELKLRDAAMSLSRLHHKEEHDVDGSGRNEPNTDKTNEELVHINRKCEELSMDIWYSERKVQEIQKRLLEHTAGVLQLTHKGLKKNSKNGMPHTPESLSSSNTVDDFDDRSLYKASDPLDGPETYETRAPPPDNLAHDNSMQETERKLESMSSRLRDMLLQLDPDSEFSQIPQPSTSGDSFEPSAMIDAHLRYIENGISALGSLPKADMASQSLDPVSEQQLVEMRTQLLSIMENPGLPRAQTLPTAPDPTDSDLAKHLTFLSVGINGLESRVEKLLEQKSILTTQIQQQRELNSKSDAERDAKIADLIEQLAHLRKELELAEREGQQSKEDHDLTLKELEDVRRELLESRETHSSRDLGNSKNEAQQHAEAEIARLQSVIQEIQQEKDEHCEAHRRAEAEIDRLQAVIHQIQQEKDEHREAHERAEAETTRLQTIVEEVQQEKDEQHEAHGRAVAEVTRLQDIIQKIEQEKIERHEADERAEAEIVRLRDTIREIQQEKEEHHEARVRLEGEVARLQGVIGQLQESAESRESAEQQVAQLEETIHQIRHDADIRIKEATDSRAQADAKIAQLEGAMNEVRESLESQLKEATEARNNAEENSTRLQKELTELERDVVRAQTELTMVKAELDGAYGTRAQRAAEAAADPALFHELDELKARNFEMAEELAALKAGKPGSGDVHNRVETLERELRETVDDYEAMTKASIEFEKERERFESMIDSLRDRCEQLETQLNEERISWMGANNSASSMGRDGPYETTSTMVLKNEFKKMMRDTRAENMKILKAEQEERRKLEAILRNLKREQANLSGKSNISRTVTAS
  stoichiometry N: 2
